Residue numbers refer to the chain shown, from its start. Each block holds one binder with its values, some of them ahead of it.
How the values were obtained:
human IL-10Rα on cells = target: T1, human IL-10Rα on cells (human, UniProt Q13651 22-578); experiment: flow cytometry, RPMI-8226 cells pre-incubated with biotinylated human IL-10 (competitor)
T1 construct: Full-length entry with signal peptide; endogenous on PBMC and RPMI-8226 cells, transfected in EL-4 and CHO-K1 cells; also called IL-10R on RPMI-8226 cells; IL-10Rα on human PBMC, lymphocytes and monocytes
T1 sequence: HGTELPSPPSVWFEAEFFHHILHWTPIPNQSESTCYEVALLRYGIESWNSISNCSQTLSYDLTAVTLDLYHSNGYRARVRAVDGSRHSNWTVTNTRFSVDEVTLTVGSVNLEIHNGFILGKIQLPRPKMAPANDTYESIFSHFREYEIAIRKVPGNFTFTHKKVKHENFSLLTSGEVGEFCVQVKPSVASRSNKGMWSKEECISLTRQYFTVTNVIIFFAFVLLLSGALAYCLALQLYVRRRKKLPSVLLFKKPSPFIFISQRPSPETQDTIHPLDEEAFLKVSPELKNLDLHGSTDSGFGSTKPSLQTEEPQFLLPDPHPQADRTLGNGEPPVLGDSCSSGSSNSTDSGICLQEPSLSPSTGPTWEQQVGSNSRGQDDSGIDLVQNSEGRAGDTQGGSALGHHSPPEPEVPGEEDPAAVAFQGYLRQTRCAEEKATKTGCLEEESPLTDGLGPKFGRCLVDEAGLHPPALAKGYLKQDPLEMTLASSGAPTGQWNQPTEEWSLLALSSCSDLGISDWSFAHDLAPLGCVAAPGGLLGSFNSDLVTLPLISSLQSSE
Method: IL-10 Blocking Assay: To determine if the anti-human IL-10Rα antibodies were blocked by binding of IL-10 to the receptor on the cell surface, a flow cytometric protocol was used. In the flow cytometric assay, RPMI-8226 cells were washed and resuspended in staining buffer and then incubated with biotinylated human IL-10 or a negative control protein (R&D Systems) for 30 minutes on ice. The anti-IL-10Rα antibodies were then added to the cells for an additional 30 minutes. The cells were washed and incubated with anti-human IgG conjugated to PE (Southern Biotech Associates) for 30 minutes. After another wash, the cells were fixed with 1% paraformaldehyde and analyzed on a FACS Calibur. The fold reduction in antibody binding was determined using the geometric mean fluorescence intensity in the following formula: Fold reduction=geometric mean fluorescence intensity in the absence of IL-10/geometric mean fluorescence intensity binding in presence of IL-10.
Recombinant IL-10 binding to the IL-10R expressed by RPMI-8226 cells reduced binding of the anti-human IL-10Rα antibodies (FIG. 3A). The reduction in antibody binding was similar for all antibodies tested. […] The fold reduction in binding by IL-10 (Table 3) was determined by dividing the geo mean of the antibody binding in the absence of IL-10 by the geo mean in the presence of IL-10. […]

Ac-SVASRSNKGM-NH2 = target: T2, Ac-SVASRSNKGM-NH2 (human); experiment: dot blot on PVDF or nitrocellulose membrane
T2 peptide: Ac-SVASRSNKGM-NH2
Method: (§1) Methods to detect antibody binding to peptides derived from the human IL-10Rα sequence: Multiple methods were employed to detect binding of anti-human IL-10Rα antibodies to peptides derived from the extracellular domain of human IL-10Rα that have been reported by Reineke, et al. (Reineke, et al., Protein Sci 7:951 (1998)) to be included in the IL-10 binding site of the receptor. The following amide synthesized peptides were tested: Ac-[…]-NH2, Ac-[…]-NH2, Ac-[…]-NH2, Ac-[…]-NH2, Ac-[…]-NH2 (SEQ ID NO. 81-85). In addition, the following biotinylated peptides were tested: Biotin-[…]-NH2, Biotin-[…]-NH2 (SEQ ID NO. 86-87). The amide peptides were synthesized by A&A Labs, LLC (San Diego, Calif.) and the biotinylated peptides were synthesized by GenScript (Piscataway, N.J.) both at >95% purity and reconstituted at 20 mg/ml in DMSO. In one assay design peptides were spotted at 5 μg/spot in PBS onto PVDF membranes or nitrocellulose membranes that had been prepared according to the manufacturer's instructions. The membranes were incubated with anti-IL-10Rα antibodies using standard Western blotting methods (e.g. Towbin, et al., Proc Natl Acad Sci 76:4350 (1979)). Native human IL-10Ra:hFc and heat denatured human IL-10Ra:hFc were also spotted at 1 μg/spot on the membranes as controls. Negative controls included an irrelevant peptide and isotype controls. […] None of the antibodies bound to the spotted denatured protein or to any of the peptides derived from the human IL-10Ra extracellular domain or the irrelevant peptide.

Ac-YHSNGYRARVRA-NH2 = target: T3, Ac-YHSNGYRARVRA-NH2 (human); experiment: dot blot on PVDF or nitrocellulose membrane
T3 peptide: Ac-YHSNGYRARVRA-NH2
Method: as §1

Ac-GNFTFTHKKV-NH2 = target: T4, Ac-GNFTFTHKKV-NH2 (human); experiment: dot blot on PVDF or nitrocellulose membrane
T4 peptide: Ac-GNFTFTHKKV-NH2
Method: as §1

Ac-TVTNTRFSVD-NH2 = target: T5, Ac-TVTNTRFSVD-NH2 (human); experiment: dot blot on PVDF or nitrocellulose membrane
T5 peptide: Ac-TVTNTRFSVD-NH2
Method: as §1

Ac-SIFSHFREYE-NH2 = target: T6, Ac-SIFSHFREYE-NH2 (human); experiment: dot blot on PVDF or nitrocellulose membrane
T6 peptide: Ac-SIFSHFREYE-NH2
Method: as §1

Fold Reduction by IL-10 (human IL-10Rα on cells): 1.88 fold
binding result (Ac-SVASRSNKGM-NH2): no binding (tested: 5 µg/spot)
binding result (Ac-YHSNGYRARVRA-NH2): no binding (tested: 5 µg/spot)
binding result (Ac-GNFTFTHKKV-NH2): no binding (tested: 5 µg/spot)
binding result (Ac-TVTNTRFSVD-NH2): no binding (tested: 5 µg/spot)
binding result (Ac-SIFSHFREYE-NH2): no binding (tested: 5 µg/spot)
B1: 136C5 (antibody, V domains shown)
VH: EVQLVESGGGLVQPGGSLRLSCAASGFTFSSYSMNWVRQAPGKGLEWVSYISTGSSTIYYADSVKGRFTISRDNAKNSLYLQMNSLRDEDTAVYYCARENYYGSGSYEDYFDYWGQGTLVTVSS
VL: EIVLTQSPATLSLSPGERATLSCRASQSVSSYLAWYQQKPGQAPRLLIYDASNRATGIPARFSGSGSGTDFTLTISSLEPEDFAVYYCQQRSNWPIFTFGPGTKVDIK
notes: Hybridoma antibody, human IgG1, kappa light chain; also called human anti-human IL-10Rα monoclonal antibody 136C5; hybridoma deposit PTA-9131

Fold Reduction by IL-10 (human IL-10Rα on cells): 1.98 fold
binding result (Ac-SVASRSNKGM-NH2): no binding (tested: 5 µg/spot)
binding result (Ac-YHSNGYRARVRA-NH2): no binding (tested: 5 µg/spot)
binding result (Ac-GNFTFTHKKV-NH2): no binding (tested: 5 µg/spot)
binding result (Ac-TVTNTRFSVD-NH2): no binding (tested: 5 µg/spot)
binding result (Ac-SIFSHFREYE-NH2): no binding (tested: 5 µg/spot)
B2: 136C8 (antibody, V domains shown)
VH: B1 VH with G54R
VL: B1 VL
notes: Hybridoma antibody, human IgG2, kappa light chain; also called human anti-human IL-10Rα monoclonal antibody 136C8; hybridoma deposit PTA-9132

From patent US20110144312A1 (Kyowa Kirin, published 2011)
